According to publication PMC6194859:

Biological target: T1, PhoB~P (phosphorylated PhoB) (Escherichia coli) (UniProt P0AFJ5)
T1 sequence: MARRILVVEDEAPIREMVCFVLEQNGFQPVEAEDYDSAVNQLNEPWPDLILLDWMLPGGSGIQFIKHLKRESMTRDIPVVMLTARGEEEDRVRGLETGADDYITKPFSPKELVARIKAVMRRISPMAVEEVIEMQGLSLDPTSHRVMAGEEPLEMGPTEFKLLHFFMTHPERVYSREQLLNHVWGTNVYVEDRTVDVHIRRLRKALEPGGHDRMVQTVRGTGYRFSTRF
Experiment: EMSA
Conditions: phosphoramidate-phosphorylated PhoB, 50 mM Tris pH 7.6, 200 mM NaCl, 0.1 mg/ml BSA, 2 mM MgCl2, 1 mM DTT, 5% glycerol, ~0.1 uM DNA (mM in the source), 15 uM nonfluorescent competitor dsDNA, 30 min, 12% …

Row | Sequence | Kd (Hill fit) | Kd (two-site per DNA binding model)
1 | CTGCAGGAAGAAGGAAAACGCTGGTTTGACAATCTTGCCGCTAACGGAAAAATCGAAATGGCCTGGCAGGAAACTTTCTGGGCGCATGGCTTTGGCAAAGTCACCGATAAATTTGGCGTACCGTGGATGATTAATGTCGTCAAACAACAACCAACGCAATAACCCGCCGGGAGGCCCGCCCTCCCGCACTGTCATCGAATTCCCGTTAACTCTTCATCTGTTAGTCACTTTTAATTAACCAAATCGTCACAATAATCCGCCACGATGGAGCCACTTTTTTAGGGAGGCTGCATCATGCAAACGATTTGATCTAGAAATAATTTTGTTTAACTTTAAGAAGGAGATATACAAATGGTGAGC (double strand) [phnC promoter] | 0.0017 mM | 
2 | GCCACGGAAATCAATAACCTGAAGATATGTGCGACGAGCTTTTCATAAATCTGTCATAAATCTGACGCATAATGACGTCGCATTAATGATCGCAACCTATTTATTACAACAGGGCTGATCTAGAAATAATTTTGTTTAACTTTAAGAAGGAGATATACAAATGGTGAGC (double strand) [phoB promoter] |  | 0.00025 mM
